Source: article PMC7305985
Blank lines part the entries; values can stand above or below the substance they belong to.

Columns and labels:
[1] = target: Histone H4K5ac peptide, biotinylated (1–23) (UniProt P62805); test: pull-down
[2] = target: Mononucleosomes, Recombinant Human Biotinylated (human) (UniProt P04908); test: pull-down
FLAG-tagged KAP1 ΔRB = test: co-IP
FLAG-tagged KAP1 ΔRB, sequence (Q13263 2-835, stated change not applied): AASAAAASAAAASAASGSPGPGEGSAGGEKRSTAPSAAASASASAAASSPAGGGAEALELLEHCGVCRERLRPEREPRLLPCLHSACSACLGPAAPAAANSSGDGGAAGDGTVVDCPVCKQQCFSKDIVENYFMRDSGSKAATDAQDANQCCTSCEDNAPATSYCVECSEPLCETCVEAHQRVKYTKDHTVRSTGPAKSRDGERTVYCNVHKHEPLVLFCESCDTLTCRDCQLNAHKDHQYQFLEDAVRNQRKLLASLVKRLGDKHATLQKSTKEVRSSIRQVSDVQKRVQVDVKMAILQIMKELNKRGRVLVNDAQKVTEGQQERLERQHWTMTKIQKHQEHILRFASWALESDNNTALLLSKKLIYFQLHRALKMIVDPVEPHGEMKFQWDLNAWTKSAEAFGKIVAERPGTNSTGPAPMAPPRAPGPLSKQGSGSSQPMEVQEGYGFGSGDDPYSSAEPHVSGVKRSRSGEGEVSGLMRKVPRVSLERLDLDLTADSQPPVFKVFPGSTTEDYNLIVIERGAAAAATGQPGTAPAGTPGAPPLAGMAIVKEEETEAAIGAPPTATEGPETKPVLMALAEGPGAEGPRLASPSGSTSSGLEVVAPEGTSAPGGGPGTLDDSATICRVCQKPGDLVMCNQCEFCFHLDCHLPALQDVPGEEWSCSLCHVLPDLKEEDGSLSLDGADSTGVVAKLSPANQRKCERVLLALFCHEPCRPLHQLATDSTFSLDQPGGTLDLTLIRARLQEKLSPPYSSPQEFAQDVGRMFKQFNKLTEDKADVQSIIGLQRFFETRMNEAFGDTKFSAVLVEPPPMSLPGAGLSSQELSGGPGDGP

endogenous SMAD2, sequence (Q15796 whole entry): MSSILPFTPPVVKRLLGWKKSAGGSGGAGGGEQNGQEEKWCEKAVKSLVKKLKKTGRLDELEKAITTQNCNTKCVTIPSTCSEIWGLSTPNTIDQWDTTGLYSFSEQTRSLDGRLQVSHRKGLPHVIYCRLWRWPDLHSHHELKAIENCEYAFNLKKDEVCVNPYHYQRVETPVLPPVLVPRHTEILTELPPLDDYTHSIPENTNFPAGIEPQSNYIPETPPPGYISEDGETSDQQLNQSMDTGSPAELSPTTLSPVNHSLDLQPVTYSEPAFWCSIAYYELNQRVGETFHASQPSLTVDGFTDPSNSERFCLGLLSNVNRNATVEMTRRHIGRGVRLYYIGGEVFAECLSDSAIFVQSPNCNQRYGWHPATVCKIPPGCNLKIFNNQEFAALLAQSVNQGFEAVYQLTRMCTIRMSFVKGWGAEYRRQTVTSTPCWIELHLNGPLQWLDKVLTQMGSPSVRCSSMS

percent lower binding relative to unmodified H4 [1]: 30%
Substance: GST-tagged KAP1 PHD-BD (residues 614–835) (from UniProt Q13263 614-835) (domain or fragment)

percent reduction in binding relative to WT KAP1 [2]: 80%
Substance: GST-tagged KAP1 PHD-BD E662/663A (from UniProt Q13263 614-835) (domain or fragment)

percent decrease in binding relative to WT KAP1 (FLAG-tagged KAP1 ΔRB): 80%
Substance: endogenous SMAD2 (from UniProt Q15796 1-467) (natural protein)
